30 sequences from the supplement of paper PMC9170038 can be followed below.

In the data set the test system is MS2 coat protein. Put plainly: apparent KD of MS2 coat protein; designed switch direction (-1 OFF switch, 1 ON switch): -1; higher = weaker reporter binding. The essentials: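 Apparent KD, taken as the median over clusters for each design, was obtained by curve-fitting normalised cluster fluorescence. Designed RNA switches had been transcribed on Illumina chips by stalled E. coli RNA polymerase and titrated with SNAP-549-labelled MS2 coat protein, doubling from 0.7 or 1.5 nM to 3 µM.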

Where [1] appears, read: Eterna round: R95, input ligand: FMN 200 uM.
Where [2] appears, read: Eterna round: R95, input ligand: microRNA oligo, concentration not stated.
[3] abbreviates: Eterna round: R95, input ligand: none.
Setting [4] is: input ligand: microRNA oligo, concentration not stated.

For the sequence “UAGGACAAAGGAUAUACGUGUUAUGAUCGGGAUAACAAAAGACAUGAGGAUCACCCAUGUAGAAGGUUGCUUGA [EX2 B.25] (Eterna round: R97, puzzle: Exclusion 2)”, the “apparent KD of MS2 coat protein” value is 26.2 nM (input ligand: FMN 200 uM) and 17.8 nM (input ligand: none).

For “AGUUUACAUGAGGAUCACCCAUGUGAGGAUAUGGAUUCGCUGGCCGUAGCCAGUGGAUCCAGAAGGCGCAUGAU [JL-ex1-4.13] (Eterna round: R97, puzzle: Exclusion 1)”, the “apparent KD of MS2 coat protein” value is, setting by setting: (input ligand: FMN 200 uM) 401 nM; (input ligand: none) 86.3 nM.

With “UAUGGUUAAGUCAGGAUAUACAUACAGAAAUCUGAGUAGAAGGGACAUGAGGAUCACCCAUGUAUGGUAGUGUU [Ex4 #55] (Eterna round: R97, puzzle: Brourd's mod of Exclusion 4)”, the “apparent KD of MS2 coat protein” value runs as follows: (input ligand: FMN 200 uM) 141 nM; (input ligand: none) 96.2 nM.

“CUGAGCAGACGGAGAUCCAACAUGAGGAUCACCCAUGUCUCAAAAGCUUUUUGCUCGUCUUAUCCUCCUCUGCUCUC [Orgeain] (puzzle: Sensor v3, turn-off variant 1)”: the “apparent KD of MS2 coat protein” value reads like this: under setting [1], 14.8 nM; under setting [2], 31.6 nM; under setting [3], 14.1 nM.

On to “GAUCCUAGUGUCAGGAUAUGCGAACAAACGCCAAAGCAGAAGGGACUUGAGGAUCACCCAAGUCGCGAUGCGAC [Arbiaran] (Eterna round: R97, puzzle: Brourd's mod of Exclusion 4)”, for which the “apparent KD of MS2 coat protein” value was found to be 257 nM (input ligand: FMN 200 uM) and 45.1 nM (input ligand: none).

As for “GCACGGUAAGUGAGGAUAUACCUCUGGAUACAGAGGUAGAAGGCACAUGAGGAUCACCCAUGUCUAAACCGUGC [Fiskers BMX 4 - 82] (puzzle: Brourd's mod of Exclusion 4)”, the “apparent KD of MS2 coat protein” value by setting is: under setting [1], 24.9 nM; under setting [2], 18.6 nM; under setting [3], 18 nM.

For the sequence “UAAUAACAAGCAGGAUCCUACAUGAGGAUCACCCAUGUGCUCGUCUUAUAAAGUACUAUCACGAAAGUGAUAGUACA [Mat - Sensor v3 - turn-off var 1 - Eli Mod - D70] (puzzle: Sensor v3, turn-off variant 1)”, the “apparent KD of MS2 coat protein” value under setting [1] came to 272 nM, the “apparent KD of MS2 coat protein” value under setting [2] came to 148 nM and the “apparent KD of MS2 coat protein” value under setting [3] was found to be 315 nM.

Take “UUACGGCGGAUCGUGGCUUUUUGCUCGUCUUGUGCUACAACAUGAGGAUCACCCAUGUAGAGGUGAUCCGUUGUAUU [Grok-var2-19 mod JAL] (puzzle: Sensor v3, turn-off variant 2)”: the “apparent KD of MS2 coat protein” value stood at 92.4 nM under setting [1], 22.3 nM under setting [2] and 120 nM under setting [3].

Turning to “GGAGAGGGAGGAUAUGCGCCAACAAACAUGAGGAUCACCCAUGUGGUGCUCCAAGAAAGGGUAGAAGGCCCUCUCC [Default title] (puzzle: Exclusion 5)”, the “apparent KD of MS2 coat protein” value runs as follows: under setting [1], 619 nM; under setting [2], 275 nM; under setting [3], 295 nM.

Regarding “GCCUAAGCAGGAUAUUCAAUAUGUCACAUGAGGAUCACCCAUGUCCAGCGAAAGCUGGAGGGAGAAGGGCUUAGGC [Mat - Exclusion 5 - Eli mod - D100] (puzzle: Exclusion 5)”, the “apparent KD of MS2 coat protein” value is 21.1 nM under setting [1], 101 nM under setting [2] and 106 nM under setting [3].

“UUUUGGCAUGUAGGAUAUGGGUCCGAUUGGGAUUUAGAAGGACAUGAGGAUCACCCAUGUGCCCUUACUUGGUGUUUUUUUUUU [EXclNG1-LROPPY20] (Eterna round: R96, puzzle: Exclusion NG 1)”: the “apparent KD of MS2 coat protein” value (input ligand: FMN 200 uM) stood at 126 nM, the “apparent KD of MS2 coat protein” value under setting [4] is 44.6 nM and the “apparent KD of MS2 coat protein” value (input ligand: none) worked out at 91.6 nM.

For “GCGGUACAUGAGGAUCACCCAUGUCAGGAUAUCCGCUGUUUGUUGAUAAGCAGGCGGUGGAGAAGGGACUUCGC [-26.7, -26 kcal, 23% A] (Eterna round: R97, puzzle: Exclusion 1)”, the “apparent KD of MS2 coat protein” value by setting is: (input ligand: FMN 200 uM) 39.7 nM; (input ligand: none) 33.8 nM.

In the case of “CGAUAAAAGACAGGAUAUGAGGAGAGAGAGAGAUCAGAAGGGUCACAUGAGGAUCACCCAUGUGAGUUCUCGAAAUUAAAUAUU [Prohibition 50 - Jieux - Exclusion NG 1] (Eterna round: R96, puzzle: Exclusion NG 1)”, the “apparent KD of MS2 coat protein” value was determined as 18.8 nM (input ligand: FMN 200 uM), 14.2 nM under setting [4] and 18.8 nM (input ligand: none).

Regarding “UAUUUAGCAAGCAGAUCCCACAUGAGGAUCACCCAUGUUUUCUGAAUGUACAGAAUUACUGUACUUGCUCGUCUUAU [Winner reversed engineered 36] (Eterna round: R97, puzzle: Sensor, turn-off variant 1)”, the “apparent KD of MS2 coat protein” value is, setting by setting: (input ligand: FMN 200 uM) 76.2 nM; (input ligand: none) 82.6 nM.

On to “UUCCUCGUUGUGAGGAUAUCGUCCGUGUUUUGUUACGAGAAGGCACAUGAGGAUCACCCAUGUUACUUGAUGUU [JR_BMOE4_Sub073] (Eterna round: R96, puzzle: Brourd's mod of Exclusion 4)”, for which the “apparent KD of MS2 coat protein” value turned out to be 150 nM (input ligand: FMN 200 uM), 19 nM under setting [4] and 23.3 nM (input ligand: none).

Take “GCCUGCUGGCGAGGAUAUCCUGUGCGGUUCCGGCUCGUGUCUGUUACAUGAGGAUCACCCAUGUGGGAGAAGGUGUCUGUGGCC [Design 99] (Eterna round: R96, puzzle: Exclusion NG 2)”: the “apparent KD of MS2 coat protein” value (input ligand: FMN 200 uM) stood at 17.7 nM, the “apparent KD of MS2 coat protein” value under setting [4] was 15.7 nM and the “apparent KD of MS2 coat protein” value (input ligand: none) amounted to 22.4 nM.

With “AGCUGUGGCCGAGGAUAUUGCGAACCAUGGAAAACCAUGGAAACUCUACAUGAGGAUCACCCAUGUAAGAAGGCGGUCUCAGCA [Eli eng2 - 025] (Eterna round: R96, puzzle: Exclusion NG 2)”, the “apparent KD of MS2 coat protein” value reads like this: (input ligand: FMN 200 uM) 18.7 nM; under setting [4], 10.7 nM; (input ligand: none) 15.8 nM.

“GUGGUACAUGAGGAUCACCCAUGUAAGGAUAUAGUCGGCUGGUGGUCGCGGGUGGUGGCUAGAAGGUGCGUGCG [-19.6, -18.2 kcal, A 19%] (Eterna round: R97, puzzle: Exclusion 1)”: the “apparent KD of MS2 coat protein” value (input ligand: FMN 200 uM) was found to be 101 nM and the “apparent KD of MS2 coat protein” value (input ligand: none) was 114 nM.

Regarding “UUUUAACAUGAGGAUCACCCAUGUGAGGAUAUCGAAAUUUAUAUUUAUAUUAAUAAAACGAGAAGGCACAUUUU [JMF 75] (puzzle: Exclusion 1)”, the “apparent KD of MS2 coat protein” value runs as follows: under setting [1], 119 nM; under setting [2], 70.4 nM; under setting [3], 87.4 nM.

In the case of “GUAGCUUCGGCUACUACAAGCUUUUUGCUCGUCUUAUUAACAUGAGGAUCACCCAUGUCAAAGAGACCUCAUGUAUU [Sensor v3 - turn-off variant 2 - 5] (puzzle: Sensor v3, turn-off variant 2)”, the “apparent KD of MS2 coat protein” value under setting [1] was found to be 420 nM, the “apparent KD of MS2 coat protein” value under setting [2] is 28.2 nM and the “apparent KD of MS2 coat protein” value under setting [3] amounted to 462 nM.

Turning to “CGCUGGACAGGAUAUGUUCUUGGGCACUUGAGGAUCACCCAAGUCAUCGGGACAUCAGGCACAGAAGGGUUUUUGG [salish99_ex5_r4_027] (Eterna round: R97, puzzle: Exclusion 5)”, the “apparent KD of MS2 coat protein” value by setting is: (input ligand: FMN 200 uM) 18 nM; (input ligand: none) 20.5 nM.

On to “UAUUUAGCAAGUAGAUCCUACAUGAGGAUCACCCAUGUGCUCUGAAAUAACGCAGAAUUACUGCGAGCUCGUCUUAU [Winner reversed engineered 28] (Eterna round: R97, puzzle: Sensor, turn-off variant 1)”, for which the “apparent KD of MS2 coat protein” value runs as follows: (input ligand: FMN 200 uM) 1080 nM; (input ligand: none) 1560 nM.

For “AAUUAAACAUAGGAUAUCGAAUUUAUUAUUUAACGAGAAGGAUGAACAUGAGGAUCACCCAUGUGGUAUCAUGG [Mat - Exclusion 6 - JL Mod - D23] (puzzle: Exclusion 6)”, the “apparent KD of MS2 coat protein” value was determined as 333 nM under setting [1], 197 nM under setting [2] and 213 nM under setting [3].

As for “CCUCUACAUGAGGAUCACCCAUGUGAGGAUAUCUCGGAGCAGCCACUUAAAGCACUCCAGAGAAGGCACGUGUA [Mavemain] (puzzle: Exclusion 1)”, the “apparent KD of MS2 coat protein” value under setting [2] was 15.5 nM.

Consider “AAGUACCGUCACGAUAGUGAUGGUACAACAAGCAGUGAUACAUGAGGAUCACCCAUGUCCUCAAUUGCUCGUCUUAU [Sensor 3 - 75] (puzzle: Sensor v3, turn-off variant 2)”, for which the “apparent KD of MS2 coat protein” value runs as follows: under setting [1], 133 nM; under setting [2], 307 nM; under setting [3], 157 nM.

Take “UUUAAUUUUUUUUUUUUACAAGCUUUUUGCUCGUCUUAUACAUGAGGAUCACCCAUGUGAGUGGGAAGUAAAUUAUC [JMF 55] (puzzle: Sensor v3, turn-off variant 2)”: the “apparent KD of MS2 coat protein” value by setting is: under setting [1], 20.5 nM; under setting [2], 248 nM; under setting [3], 19.9 nM.

For “AAGUAUAGAGGAUAUAGUAGGUACAACAUGAGGAUCACCCAUGUUCUUCAUAACGUAUUUCUAGAAGGCUGAUAAA [EX-5 Malc#27] (puzzle: Exclusion 5)”, the “apparent KD of MS2 coat protein” value under setting [2] came out at 174 nM.

Consider “AACAGUACAGGAUAUACAUGAGGAUCACCCAUGUGAAGAAUAAGUGGAGUACCACAAAGUAGAAGGGUACUGGA [Ruby 88] (Eterna round: R96, puzzle: Exclusion 3)”, for which, under setting [4], the “apparent KD of MS2 coat protein” value was 21.5 nM.

Take “AGUACUAUGCGUGCUGACAUGCGUAGUGCAGCAGGUGUAACAUGAGGAUCACCCAUGUCCUCAUUUGCUCGUCUUAU [Mat - Sensor v3 - Turn-off var 2 - D12] (puzzle: Sensor v3, turn-off variant 2)”: the “apparent KD of MS2 coat protein” value turned out to be 116 nM under setting [1], 201 nM under setting [2] and 127 nM under setting [3].

Turning to “GGUGCGUAUGUGAGGAUAUGCUGGUCCUUGGAUCAGCAGAAGGCACAUGAGGAUCACCCAUGUGGUGUCGUACU [salish99_Bmod_Ex4_013] (puzzle: Brourd's mod of Exclusion 4)”, the “apparent KD of MS2 coat protein” value under setting [2] was 266 nM.
